One experiment has as its target IGF-I (UniProt P05019). Briefly: competition binding with 125I-IGF-I tracer and unlabelled IGF-I as competitor, Scatchard analysis.
The next experiment concerns the target IGF-II (UniProt P01344). The experiment is described as follows: competition binding with 125I-IGF-I tracer and unlabelled IGF-II as competitor, Scatchard analysis.

Among the data in US20140005098A1 are Ka values, retold here.

IGF-II, sequence (P01344 25-91 limits assumed): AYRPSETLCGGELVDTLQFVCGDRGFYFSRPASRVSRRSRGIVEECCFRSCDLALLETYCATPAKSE
IGF-I, sequence (P05019 49-118 limits assumed): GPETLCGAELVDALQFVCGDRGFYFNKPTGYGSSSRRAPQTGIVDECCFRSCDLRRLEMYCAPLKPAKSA

In the case of “mini-IGFBP-3 (mutated recombinant IGFBP-3; H6-mini-IGFBP-3) (from UniProt P17936 28-121; P17936 207-291)”, the Ka with IGF-I was 2.4e+10 M⁻¹; in the experiment with IGF-II, 3.14e+10 M⁻¹.
